# Experimental data from the supplement of paper PMC9170038.
# Tested on: MS2 coat protein
# Assay: apparent KD of MS2 coat protein; designed switch direction (-1 OFF switch, 1 ON switch): -1; higher = weaker reporter binding
# Outline: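 SNAP-549-labelled MS2 coat protein was titrated, doubling from 0.7 or 1.5 nM to 3 µM, over designed RNA switches transcribed on Illumina chips by stalled E. coli RNA polymerase. Runs were done without input, with 200 uM small-molecule ligand, or with an oligonucleotide input. Apparent KD is the per-design median over clusters of curve-fitted normalised fluorescence.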
# [1] = Eterna round: R95, input ligand: microRNA oligo, concentration not stated
# [2] = input ligand: microRNA oligo, concentration not stated
# [3] = Eterna round: R95, input ligand: FMN 200 uM
# [4] = Eterna round: R95, input ligand: none
Sequence,apparent KD of MS2 coat protein (input ligand: FMN 200 uM) [nM],apparent KD of MS2 coat protein (input ligand: none) [nM],apparent KD of MS2 coat protein [1] [nM],apparent KD of MS2 coat protein [2] [nM],apparent KD of MS2 coat protein [3] [nM],apparent KD of MS2 coat protein [4] [nM]
"AGAUCGUCAGGAUAUACAUGAGGAUCACCCAUGUAUAGUCUAAAUUUGACUAUAAAGUGUAGAAGGGACGAUCG [Exclusion 3 (MOD6 of #1 Marzena11)] (Eterna round: R97, puzzle: Exclusion 3)",51.5,18.1,–,–,–,–
UUUAUGUCAGGAUAUGAGUAGUAGAACAAUAGUACUACUACUCAGAAGGGACAUGAGGAUCACCCAUGUUUCUC [Fiskers Ex 4 Super stable 44 mod 24] (puzzle: Exclusion 4),–,–,22.6,–,–,–
"UAAUAAAGUGUGAGGAUAUGCUGGUCGAUAGAUCAGCAGAAGGCACAUGAGGAUCACCCAUGUAAUAUAUUUUA [Mat - Exclusion 4 - JL Mod - D46] (Eterna round: R96, puzzle: Brourd's mod of Exclusion 4)",238,56.1,–,40.6,–,–
"AGGUGCUUCUGGAAACAUGAGGAUCACCCAUGUUGAGUUAGCGAGGAUAUCGGUAACCAUUGUUAUGAGAAGGCGCAAACCAGA [Ex NG3 #37] (Eterna round: R96, puzzle: Exclusion NG 3)",19.9,20.2,–,11.4,–,–
"ACAAGCUUAAUCUGUAUGAACAUGAGGAUCACCCAUGUAUAAGGGAAUUCUUUUGGGUUUUUUAUAGCUCGUCUUAU [JR_STOV1_Sub020] (Eterna round: R97, puzzle: Sensor, turn-off variant 1)",280,337,–,–,–,–
"UUGAUACAUGAGGAUCACCCAUGUUAGGAUAUACGCAUGCAUGCAUGCAUGCAUGCAAGUAGAAGGAACCAUGC [Design #1] (Eterna round: R97, puzzle: Exclusion 1)",30.7,42,–,–,–,–
"AAGUACUACAAGCUUUGGGACAUGAGGAUCACCCAUGUUCGUCUUAUUGAUCUAGGUACGCUGACGUACCUAGAUCU [Mat - Sensor v3 - turn-off var 1 - JL Mod - D8] (puzzle: Sensor v3, turn-off variant 1)",–,–,73.4,–,16.5,13.2
"UCCUCCUAAGGAUAUGCGUCGGUUGAACUAUGCUAAAAGGGACAUGAGGAUCACCCAUGUAGAAGGUAGGGCAG [Eternabot (L2) Solution 86] (Eterna round: R97, puzzle: Exclusion 2)",72.5,48.8,–,–,–,–
"GAAUACAAGUAAAGAUCCUACAUGAGGAUCACCCAUGUGCUCGUCUUGUAAAGUACUAUCACGAAAGUGAUAGUACA [Mat - Sensor v3 - turn-off var 1 - Eli Mod - D88] (puzzle: Sensor v3, turn-off variant 1)",–,–,159,–,53.8,47.1
"GUUUUCAGACGGAGAUCCUACAUGAGGAUCACCCAUGUCUCUCAAGCUAAUUGCUCGUCUUAUUCUCCUCUGUUCUC [Elimod 39 - Jieux - Sensor, turn-off variant 1] (Eterna round: R97, puzzle: Sensor, turn-off variant 1)",35.6,41,–,–,–,–
"GGUACUAACACGAAAGUGUUAGUACAAUAAGCUAGUGGAACAUGAGGAUCACCCAUGUCCUCAUUAGCUCGUCUUAU [Mat - Sensor v3 - Turn-off var 2 - D36] (puzzle: Sensor v3, turn-off variant 2)",–,–,43.8,–,14.5,15
AUAUCAAGCAAGGAUAUGCAAAUGGUUAUUUAUGCAGAAGGUGCGACAUGAGGAUCACCCAUGUUUCUGGGUUU [JR_E6_Sub050] (puzzle: Exclusion 6),–,–,68.2,–,–,–
"CUGCUCCGUGUAGGAUAUGCGCGCACCACCCGCGCAGAAGGACAUGAGGAUCACCCAUGUAUGUUAUUAUCACGUGAGGCGCGC [Design 37] (Eterna round: R96, puzzle: Exclusion NG 1)",16.8,18,–,10.9,–,–
"AACAUUCCAGAAAGGAAUGACAUGAGGAUCACCCAUGUAGGGAUCUAUGCUAAGUUGCUCGUCGCCGCUCCACAAAG [Eternabot (Original) Solution 5] (Eterna round: R97, puzzle: Sensor, turn-off variant 1)",431,362,–,–,–,–
"UCUUUGUUUGUGAGGAUAUCGGUGGGAUGGGUUGUCGAGAAGGCACAUGAGGAUCACCCAUGUGAGGGACAGCA [JR_BMEx4_Sub028] (Eterna round: R97, puzzle: Brourd's mod of Exclusion 4)",16.6,16.2,–,–,–,–
"AAUCCUGAAGUUAGGAUAUGAAGUAUCACUACACUUUAGAAGGAACUUGAGGAUCACCCAAGUAGCCGUGAGGC [jl-bmx4.4.65 ViennaUCT mod] (Eterna round: R97, puzzle: Brourd's mod of Exclusion 4)",68,22.4,–,–,–,–
UCGUUUUUUGAGGAUAUGCGACGUUUUUUCGUCGUAGAAGGCGAUACAUGAGGAUCACCCAUGUUUAUGGGCAU [LRO-Ex6-15] (puzzle: Exclusion 6),–,–,148,–,–,–
"GUGCCGCGAGGAUAUACAGACGGGUCCAGUACGUGUCUUGGACUUGAGGAUCACCCAAGUAGAAGGCGUCUCAG [salish99_ex2_r4_612] (Eterna round: R97, puzzle: Exclusion 2)",37.6,48.9,–,–,–,–
"AAGAAACAUGAGGAUCACCCAUGUGAGGAUAUGGCCCGCCCGGCGUGAGCUGGUUUUGUCAGAAGGCACAAAGG [salish99_ex1_r4_017] (Eterna round: R97, puzzle: Exclusion 1)",104,41.9,–,–,–,–
"ACAAGCUCUUUGCAACUUAGUUUUGUUGCUUCGUAGGUAACAUGAGGAUCACCCAUGUAAGACUGAUGUCGUCUUAU [JR_SV3TOV2_Sub086] (puzzle: Sensor v3, turn-off variant 2)",–,–,21.4,–,33.1,36.8
"ACAUGAGGAUCACCCAUGUGACCACGAUGGCUGAUGUAAAGACAGGAUAUGUGUGAAUAUCUAUCACAGAAGGGUCUUGACUGG [Deportation 55 - Jieux - Exclusion NG 3] (Eterna round: R96, puzzle: Exclusion NG 3)",24.1,30.6,–,22,–,–
"ACAUGUCAUCGAGGAUAUUGGACACAUGAGGAUCACCCAUGUACUCGGUUGCUCUAGCAUGAGUUCGAGAAGGCGAUGUACAUU [Ex NG2 #80] (Eterna round: R96, puzzle: Exclusion NG 2)",159,387,–,229,–,–
CCAUCGUGUGUGAGGAUAUGCUGGUCCUUGGAUCAGCAGAAGGCACAUGAGGAUCACCCAUGUGAAAACGAUGG [Mat - Exclusion 4 - JL Mod - D88] (puzzle: Brourd's mod of Exclusion 4),–,–,16.8,–,–,–
GAGGUGUUAGGAUAUCGGAGAUGGAGAAGAACGGGAAGAGGCGAGAAGGAACAUGAGGAUCACCCAUGUAGGUG [JR_Exclu4_Sub029] (puzzle: Exclusion 4),–,–,357,–,–,–
"GAUUUGUAAGGAUAUCGUGCAAGUUUCAAAAGAGGCUUGUGCGAGAAGGUACAUGAGGAUCACCCAUGUAGGUU [Omei Ex4 B13] (Eterna round: R97, puzzle: Exclusion 4)",42.6,24.1,–,–,–,–
